Two molecules from PMC9555685, “A single transcription factor facilitates an insect host combating Bacillus thuringiensis infection while maintaining fitness” can be followed below.

Common to all, as to settings: protein: recombinant; tags: N-terminal His; label: 5'-biotin
Series [1] addresses T1, FTZ-F1 T288A(-P) (non-phosphorylated form) (Plutella xylostella, UniProt A0ABQ7R810 1-557, T288A). The experiment in a line: EMSA; 20 fmol probe; cold competitor 100 and 500 fmol; EMSA: 25 °C, 30 min, 20 fmol biotin probe, LightShift Chemiluminescent EMSA Kit; buffer, salt and pH not stated. For orientation: A gel shift assay detects complexes by their altered migration in electrophoresis.

For series [2], the target named is T2, FTZ-F1 T288D(P) (phosphomimic) (Plutella xylostella, UniProt A0ABQ7R810 1-557, T288D). The experiment in a line: EMSA; 20 fmol probe; EMSA: 25 °C, 30 min, 20 fmol biotin probe, LightShift Chemiluminescent EMSA Kit; buffer, salt and pH not stated.
T2 sequence (A0ABQ7R810 entry or part of it T288D | T288D T288D): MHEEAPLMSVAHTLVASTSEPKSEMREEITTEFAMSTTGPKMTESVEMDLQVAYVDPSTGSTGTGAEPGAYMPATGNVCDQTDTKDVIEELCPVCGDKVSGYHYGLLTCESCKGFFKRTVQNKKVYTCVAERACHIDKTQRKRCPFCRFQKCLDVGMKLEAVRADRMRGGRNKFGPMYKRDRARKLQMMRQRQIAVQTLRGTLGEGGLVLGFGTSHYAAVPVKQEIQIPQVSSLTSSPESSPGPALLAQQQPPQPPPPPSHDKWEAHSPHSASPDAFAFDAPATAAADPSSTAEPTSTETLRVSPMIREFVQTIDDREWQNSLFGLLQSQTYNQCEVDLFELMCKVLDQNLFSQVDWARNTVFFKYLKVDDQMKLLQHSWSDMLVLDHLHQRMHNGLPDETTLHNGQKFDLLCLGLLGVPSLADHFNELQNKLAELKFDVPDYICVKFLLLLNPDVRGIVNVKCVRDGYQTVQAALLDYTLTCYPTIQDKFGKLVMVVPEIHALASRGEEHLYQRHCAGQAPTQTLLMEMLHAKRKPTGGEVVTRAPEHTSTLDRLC
The target in series [3] is T2, FTZ-F1 T288D(P) (phosphomimic). The experiment in a line: EMSA; 20 fmol probe; cold competitor 100 and 500 fmol; EMSA: 25 °C, 30 min, 20 fmol biotin probe, LightShift Chemiluminescent EMSA Kit; buffer, salt and pH not stated.
In series [4] the target is T1, FTZ-F1 T288A(-P) (non-phosphorylated …). The experiment in a line: EMSA; 20 fmol probe; EMSA: 25 °C, 30 min, 20 fmol biotin probe, LightShift Chemiluminescent EMSA Kit; buffer, salt and pH not stated.

T1 sequence (A0ABQ7R810 entry or part of it T288A | T288A T288A): as the sequence (A0ABQ7R810 entry or part of it T288D | T288D T288D) above, with D288A counted along it

B1: FBS (ABCC2 promoter) (dsDNA)
DNA 1: CTGTCCTGTAA
DNA 2: TTACAGGACAG
With B1, the binding result in series [1] is on record as “binds”; in series [2], “no binding”.

B2: FBSP (ABCC1 promoter) (dsDNA)
DNA 1: GTACAGTCAC
DNA 2: GTGACTGTAC
Consider B2, for which the values for the binding result in series [3] and in series [4] were “binds” and “no binding”, respectively.
